Values of other authors as cited in publication PMC3317066.

Legend:
[1] = molecular target: falcipain-2 (Plasmodium falciparum) (UniProt Q8I6U4)
[2] = molecular target: falcipain-3 (Plasmodium falciparum) (UniProt Q8IIL0)
[3] = molecular target: methemoglobin (Homo sapiens) (UniProt P69905)
[4] = molecular target: hemoglobin (Homo sapiens) (UniProt P69905)

Chain of UniProt Q8IIL0 (Q8IIL0 243-492): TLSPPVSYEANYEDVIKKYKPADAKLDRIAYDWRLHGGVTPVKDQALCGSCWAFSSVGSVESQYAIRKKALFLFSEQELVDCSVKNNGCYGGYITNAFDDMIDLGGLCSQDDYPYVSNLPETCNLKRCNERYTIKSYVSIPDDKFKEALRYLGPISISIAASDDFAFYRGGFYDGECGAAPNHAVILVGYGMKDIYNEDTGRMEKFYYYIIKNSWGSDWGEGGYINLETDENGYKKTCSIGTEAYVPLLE

**Q.** For cystatin (from UniProt P01038), which Ki [1] is on record?
**A.** 6.5 nM

**Q.** And the Ki [2]?
**A.** 100 nM

**Q.** For falcipain-2 (from UniProt Q8I6U4), which Kd [3] is on record?
**A.** 800 nM

**Q.** What about the Kd [4] of the same substance?
**A.** 3.3 µM
